The source of these data is IntAct's records for PubMed 29892012.

B1: Centrosomal protein POC5 (Homo sapiens), Q8NA72 (parent)
chain: MSSDEEKYSLPVVQNDSSRGSSVSSNLQEEYEELLHYAIVTPNIEPCASQSSHPKGELVPDVRISTIHDILHSQGNNSEVRETAIEVGKGCDFHISSHSKTDESSPVLSPRKPSHPVMDFFSSHLLADSSSPATNSSHTDAHEILVSDFLVSDENLQKMENVLDLWSSGLKTNIISELSKWRLNFIDWHRMEMRKEKEKHAAHLKQLCNQINELKELQKTFEISIGRKDEVISSLSHAIGKQKEKIELMRTFFHWRIGHVRARQDVYEGKLADQYYQRTLLKKVWKVWRSVVQKQWKDVVERACQARAEEVCIQISNDYEAKVAMLSGALENAKAEIQRMQHEKEHFEDSMKKAFMRGVCALNLEAMTIFQNRNDAGIDSTNNKKEEYGPGVQGKEHSAHLDPSAPPMPLPVTSPLLPSPPAAVGGASATAVPSAASMTSTRAASASSVHVPVSALGAGSAATAASEEMYVPRVVTSAQQKAGRTITARITGRCDFASKNRISSSLAIMGVSPPMSSVVVEKHHPVTVQTIPQATAAKYPRTIHPESSTSASRSLGTRSAHTQSLTSVHSIKVVD
B2: E3 ubiquitin-protein ligase LNX (Homo sapiens), Q8TBB1 (parent)
chain: MNQPESANDPEPLCAVCGQAHSLEENHFYSYPEEVDDDLICHICLQALLDPLDTPCGHTYCTLCLTNFLVEKDFCPMDRKPLVLQHCKKSSILVNKLLNKLLVTCPFREHCTQVLQRCDLEHHFQTSCKGASHYGLTKDRKRRSQDGCPDGCASLTATAPSPEVSAAATISLMTDEPGLDNPAYVSSAEDGQPAISPVDSGRSNRTRARPFERSTIRSRSFKKINRALSVLRRTKSGSAVANHADQGRENSENTTAPEVFPRLYHLIPDGEITSIKINRVDPSESLSIRLVGGSETPLVHIIIQHIYRDGVIARDGRLLPGDIILKVNGMDISNVPHNYAVRLLRQPCQVLWLTVMREQKFRSRNNGQAPDAYRPRDDSFHVILNKSSPEEQLGIKLVRKVDEPGVFIFNVLDGGVAYRHGQLEENDRVLAINGHDLRYGSPESAAHLIQASERRVHLVVSRQVRQRSPDIFQEAGWNSNGSWSPGPGERSNTPKPLHPTITCHEKVVNIQKDPGESLGMTVAGGASHREWDLPIYVISVEPGGVISRDGRIKTGDILLNVDGVELTEVSRSEAVALLKRTSSSIVLKALEVKEYEPQEDCSSPAALDSNHNMAPPSDWSPSWVMWLELPRCLYNCKDIVLRRNTAGSLGFCIVGGYEEYNGNKPFFIKSIVEGTPAYNDGRIRCGDILLAVNGRSTSGMIHACLARLLKELKGRITLTIVSWPGTFL
partner: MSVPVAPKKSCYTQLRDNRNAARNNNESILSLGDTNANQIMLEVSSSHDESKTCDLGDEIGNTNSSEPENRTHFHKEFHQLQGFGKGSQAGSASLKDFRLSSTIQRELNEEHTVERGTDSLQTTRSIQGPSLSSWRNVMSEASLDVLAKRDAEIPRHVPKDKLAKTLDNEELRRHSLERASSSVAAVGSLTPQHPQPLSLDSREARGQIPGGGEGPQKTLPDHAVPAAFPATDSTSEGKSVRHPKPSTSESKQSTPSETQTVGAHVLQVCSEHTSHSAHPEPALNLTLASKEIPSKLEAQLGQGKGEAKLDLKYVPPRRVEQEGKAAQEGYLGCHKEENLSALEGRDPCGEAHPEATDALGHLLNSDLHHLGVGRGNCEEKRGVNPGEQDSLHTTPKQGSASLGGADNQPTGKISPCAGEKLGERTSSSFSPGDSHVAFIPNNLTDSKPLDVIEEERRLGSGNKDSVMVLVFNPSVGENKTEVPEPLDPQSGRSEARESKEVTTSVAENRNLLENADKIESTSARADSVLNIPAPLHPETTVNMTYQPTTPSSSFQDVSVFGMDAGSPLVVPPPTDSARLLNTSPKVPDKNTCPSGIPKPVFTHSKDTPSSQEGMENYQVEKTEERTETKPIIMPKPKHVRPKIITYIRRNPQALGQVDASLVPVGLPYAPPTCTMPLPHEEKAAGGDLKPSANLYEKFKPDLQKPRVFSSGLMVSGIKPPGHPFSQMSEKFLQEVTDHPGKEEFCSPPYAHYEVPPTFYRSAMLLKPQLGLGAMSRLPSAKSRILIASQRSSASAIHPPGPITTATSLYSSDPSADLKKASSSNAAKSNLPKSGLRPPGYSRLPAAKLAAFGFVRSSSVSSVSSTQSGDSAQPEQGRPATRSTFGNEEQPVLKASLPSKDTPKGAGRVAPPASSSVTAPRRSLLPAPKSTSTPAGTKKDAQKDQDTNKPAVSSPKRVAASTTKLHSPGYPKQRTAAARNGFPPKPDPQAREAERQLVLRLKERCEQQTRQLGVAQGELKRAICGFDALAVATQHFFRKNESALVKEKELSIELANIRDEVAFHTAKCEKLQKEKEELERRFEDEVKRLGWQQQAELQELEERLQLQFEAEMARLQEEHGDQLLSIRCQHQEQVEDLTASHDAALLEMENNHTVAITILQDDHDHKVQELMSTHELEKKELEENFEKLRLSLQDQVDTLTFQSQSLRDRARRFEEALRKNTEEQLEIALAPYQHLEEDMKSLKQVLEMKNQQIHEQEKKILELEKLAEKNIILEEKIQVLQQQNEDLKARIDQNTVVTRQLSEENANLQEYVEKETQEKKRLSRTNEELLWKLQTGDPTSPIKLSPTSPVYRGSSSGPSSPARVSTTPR
B3: E3 ubiquitin-protein ligase LNX (Homo sapiens), Q8TBB1 (parent)
chain: B2 chain
partner: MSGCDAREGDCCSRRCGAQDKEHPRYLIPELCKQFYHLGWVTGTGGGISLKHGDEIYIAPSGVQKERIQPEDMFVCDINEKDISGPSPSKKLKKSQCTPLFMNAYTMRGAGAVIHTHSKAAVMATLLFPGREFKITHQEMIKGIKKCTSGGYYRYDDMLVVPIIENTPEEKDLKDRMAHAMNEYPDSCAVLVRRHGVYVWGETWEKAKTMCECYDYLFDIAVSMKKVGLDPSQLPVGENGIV
B4: E3 ubiquitin-protein ligase LNX (Homo sapiens), Q8TBB1 (parent)
chain: B2 chain
partner: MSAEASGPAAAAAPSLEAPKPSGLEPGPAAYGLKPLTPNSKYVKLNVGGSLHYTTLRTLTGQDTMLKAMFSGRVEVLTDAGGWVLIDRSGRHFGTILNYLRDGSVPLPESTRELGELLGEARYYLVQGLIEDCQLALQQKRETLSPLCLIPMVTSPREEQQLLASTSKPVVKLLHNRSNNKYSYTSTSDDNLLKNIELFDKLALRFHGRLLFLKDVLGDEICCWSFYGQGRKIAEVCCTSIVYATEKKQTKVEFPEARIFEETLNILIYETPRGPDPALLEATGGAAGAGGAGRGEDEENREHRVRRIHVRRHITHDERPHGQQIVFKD
B5: E3 ubiquitin-protein ligase LNX (Homo sapiens), Q8TBB1 (parent)
chain: B2 chain
partner: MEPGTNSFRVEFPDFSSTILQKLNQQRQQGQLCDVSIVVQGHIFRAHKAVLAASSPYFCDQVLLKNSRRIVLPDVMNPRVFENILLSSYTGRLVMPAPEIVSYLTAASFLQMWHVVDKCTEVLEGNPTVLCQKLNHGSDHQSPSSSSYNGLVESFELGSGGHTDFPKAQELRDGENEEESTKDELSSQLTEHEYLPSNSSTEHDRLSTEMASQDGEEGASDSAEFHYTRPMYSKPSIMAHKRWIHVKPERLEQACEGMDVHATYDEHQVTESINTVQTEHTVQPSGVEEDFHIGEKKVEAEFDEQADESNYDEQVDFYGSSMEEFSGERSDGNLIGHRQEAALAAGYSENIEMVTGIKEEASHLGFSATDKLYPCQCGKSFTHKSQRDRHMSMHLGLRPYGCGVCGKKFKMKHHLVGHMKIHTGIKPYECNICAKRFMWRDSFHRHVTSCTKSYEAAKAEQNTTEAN
B6: E3 ubiquitin-protein ligase LNX (Homo sapiens), Q8TBB1 (parent)
chain: B2 chain
partner: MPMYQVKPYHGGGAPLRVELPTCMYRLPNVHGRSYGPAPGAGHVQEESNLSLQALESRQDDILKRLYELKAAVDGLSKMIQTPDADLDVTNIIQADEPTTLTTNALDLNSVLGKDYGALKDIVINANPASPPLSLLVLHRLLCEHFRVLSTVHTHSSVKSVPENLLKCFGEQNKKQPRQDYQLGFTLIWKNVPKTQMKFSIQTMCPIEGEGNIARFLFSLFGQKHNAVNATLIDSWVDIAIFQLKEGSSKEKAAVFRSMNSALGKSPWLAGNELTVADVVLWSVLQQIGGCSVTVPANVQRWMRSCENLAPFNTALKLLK

In the first assay the parent is B1. The following applies: with cetn1_human CETN1, Q12798.
Chain of cetn1_human CETN1, Q12798 (Q12798 whole entry): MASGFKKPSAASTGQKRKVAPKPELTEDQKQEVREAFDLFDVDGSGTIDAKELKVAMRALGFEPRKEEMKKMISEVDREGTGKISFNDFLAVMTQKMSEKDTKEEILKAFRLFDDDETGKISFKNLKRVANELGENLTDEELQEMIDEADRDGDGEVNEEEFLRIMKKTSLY
MSSDEEKYSLPVVQNDSSRGSSVSSNLQEEYEELLHYAIVTPNIEPCASQSSHPKGELVPDVRISTIHDILHSQGNNSEVRETAIEVGKGCDFHISSHSKTDESSPVLSPRKPSHPVMDFFSSHLLADSSSPATNSSHTDAHEILVSDFLVSDENLQKMENVLDLWSSGLKTNIISELSKWRLNFIDWHRMEMRKEKEKHAAHLKQLCNQINELKELQKTFEISIGRKDEVISSLSHAIGKQKEKIELMRTFFHWRIGHVRARQDVYEGKLADQYYQRTLLKKVWKVWRSVVQKQWKDVVERACQARAEEVCIQISNDYEAKVAMLSGALENAKAEIQRMQHEKEHFEDSMKKAFMRGVCALNLEAMTIFQNRNDAGIDSTNNKKEEYGPGVQGKEHSAHLDPSAPPMPLPVTSPLLPSPPAAVGGASATAVPSAASMTSTRAASASSVHVPVSALGAGSAATAASEETYVPRVVTSAQQKAGRTITARITGRCDFASKNRISSSLAIMGVSPPMSSVVVEKHHPVTVQTIPQATAAKYPRTIHPESSTSASRSLGTRSAHTQSLTSVHSIKVVD [M469T]: the “effect of a mutation on the interaction” value was “with no effect”.

The variants in the next assay derive from B1. As to conditions: with cetn2_human CETN2, P41208.
Chain of cetn2_human CETN2, P41208 (P41208 whole entry): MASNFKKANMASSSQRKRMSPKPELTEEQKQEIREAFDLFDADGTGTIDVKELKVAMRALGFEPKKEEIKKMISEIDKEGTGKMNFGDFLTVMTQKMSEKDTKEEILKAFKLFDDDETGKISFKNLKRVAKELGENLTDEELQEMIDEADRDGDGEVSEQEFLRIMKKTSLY
MSSDEEKYSLPVVQNDSSRGSSVSSNLQEEYEELLHYAIVTPNIEPCASQSSHPKGELVPDVRISTIHDILHSQGNNSEVRETAIEVGKGCDFHISSHSKTDESSPVLSPRKPSHPVMDFFSSHLLADSSSPATNSSHTDAHEILVSDFLVSDENLQKMENVLDLWSSGLKTNIISELSKWRLNFIDWHRMEMRKEKEKHAAHLKQLCNQINELKELQKTFEISIGRKDEVISSLSHAIGKQKEKIELMRTFFHWRIGHVRARQDVYEGKLADQYYQRTLLKKVWKVWRSVVQKQWKDVVERACQARAEEVCIQISNDYEAKVAMLSGALENAKAEIQRMQHEKEHFEDSMKKAFMRGVCALNLEAMTIFQNRNDAGIDSTNNKKEEYGPGVQGKEHSAHLDPSAPPMPLPVTSPLLPSPPAAVGGASATAVPSAASMTSTRAASASSVHVPVSALGAGSAATAASEETYVPRVVTSAQQKAGRTITARITGRCDFASKNRISSSLAIMGVSPPMSSVVVEKHHPVTVQTIPQATAAKYPRTIHPESSTSASRSLGTRSAHTQSLTSVHSIKVVD [M469T]: the “effect of a mutation on the interaction” value is “with no effect”.

In another assay the parent is B2. As to conditions: with mtus2_human MTUS2, Q5JR59.
Take E295K: the “effect of a mutation on the interaction” value was “disrupting interaction strength”.

In another assay the parent is B3. The following applies: with mtnb_human APIP.
E295K: the “effect of a mutation on the interaction” value was “disrupting interaction strength”.

The next assay covers variants of B4. The following applies: with bacd1_human KCTD13, Q8WZ19.
Consider E295K, for which the “effect of a mutation on the interaction” value was “disrupting interaction strength”.

Another assay covers variants of B5. The following applies: with zbt43_human ZBTB43, O43298.
Regarding E295K, the “effect of a mutation on the interaction” value is recorded as “disrupting interaction strength”.

Variants of B6 are the subject of the next assay. The following applies: with aimp2_human AIMP2, Q13155.
On to E295K, for which the “effect of a mutation on the interaction” value is reported as “disrupting interaction strength”.
